Data from US20160326219A1, “OPTICALLY ACTIVATED RECEPTORS” (IST AUSTRIA (INSTITUTE OF SCIENCE AND TECHNOLOGY AUSTRIA), priority 2013, published 2016).

System: MAPK pathway
Test: Stimulation and detection of MAPK signaling, PathDetect Elk1 luciferase reporter (HEK293 cells)
Assay type: cell-based, human
Details: for MAPK pathway activation in response to blue light: HEK293 cells expressing the fusion protein (LOV domain fused to RTK intracellular domain), ~3 μW/mm^2; for MAPK pathway activation in response to red light: HEK293 cells, PCB incubation, ~0.05 μW/mm^2
Method: For light stimulation of cells, an incubator (PT2499, ExoTerra/HAGEN, Holm, Germany) was equipped with 300 light emitting diodes (JS-FS505ORGB-W30 with JS-CON-004 controller, Komerci, Ebern, Germany; λmax˜630 nm (red), λmax˜530 nm (green), λmax˜470 nm (blue), bandwidth ˜±5 nm). Light intensity was controlled with an analog dimmer and measured with a digital power meter (PM120VA, Thorlabs, Munich, Germany). Intensities at maximal output were 2.3 (red), 2.6 (green) and 3.3 (blue light) W/m^2. For stimulation over extended time periods (>8 h), an aluminium box was equipped with the same light-emitting diodes and controller and placed in an incubator with standard tissue culture conditions (see below).
HEK293 cells and CHO-K1 (American Type Culture Collection (ATCC), Manassas, Va.) cells were maintained in DMEM supplemented with 10% FBS, 100 U/ml penicilin and 0.1 mg/ml streptomycin in a humidified incubator with 5% CO2 atmosphere. After trypsination, 5×10^4 cells were seeded in each well of 96-well plates (three to four wells for each construct) coated with poly-L-ornithine (Sigma, Vienna, Austria). Either transparent plates or black clear bottom plates were used. Cells were transfected using Lipofectamine 2000 (Invitrogen/LifeTech).
Phycocyanobilin (PCB; Livchem Logistics GmbH, Frankfurt a.M., Germany) was dissolved in a dark room to a stock concentration of 10 mM in DMSO. Aliquots were stored in the dark at −20° C. Prior to experiments, cells were incubated with 50 μM PCB overnight in reduced serum starve medium at 37° C. PCB could also be applied to applied to living animals as it is non-toxic even in high doses (0.17% of diet or 10 mg/kg) (McCarty (2007).
Activation of the MAPK pathway was assayed with the PathDetect Elk1 trans-Reporting System (Agilent) consisting of an Elk1 phosphorylation-dependent trans-activator and a luciferase-based trans-reporter. Cells were transfected with 213.3 ng total DNA per well (receptor, trans-activator and trans-reporter at ratio of 1:3:60 or 1:30:600) using Lipofectamine 2000. Six h after transfection medium was replaced with CO2-independent reduced serum starve medium (Gibco/Life Technologies; supplemented with 0.5% FBS, 2 mM L-Glutamine, 100 U/ml penicilin and 0.1 mg/ml streptomycin) for 18 h at 37° C. Cells were transferred and were either kept under constant illumination for 8 h or were protected from light. Chemical stimulation of imFGFR1 followed the same procedure, except that 10 nM AP20187 ((Clackson 1998); ARIAD Pharmaceuticals, Cambridge, Mass.) were added before transfer to the stimulation incubator. After incubation, plates were washed once with PBS and luciferase was detected with standard, off-the-shelf reagents. These were either Luciferase 1000 Assay System (Promega, Mannheim, Germany) in combination with a microplate reader equipped with an injector (Tecan Infinite 200 Pro, Maennedorf, Switzerland), or ONE-Glo Assay System (Promega) in combination with a microplate reader not equipped with an injector (BioTek Synergy H1). These assay systems provide equivalent results.

## imFGFR1: chemically-inducible mFGFR1 lacking ligand-binding modules, with a single FKBP domain, SEQ ID NO: 56 [reference compound]
  MAPK pathway activation in response to blue light: no effect

## rtrkB-SyCP1-PHY: chimeric receptor of rat trkB catalytic domain and SyCP1-PHY, SEQ ID NO: 67
  MAPK pathway activation in response to red light: activate the canonical MAPK pathway

B1: OdPA1-LOV: LOV domain of O. danica aureochrome1-like protein, residue 180 to 312 of C5NSW6, SEQ ID NO: 14 (protein, listed as Ochromonas danica)
chain: PDYSLVKALQTAQQNFVISDPSIPDNPIVYASQGFLTLTGYALSEVLGRNCRFLQGPETDPKAVEKVRKGLERGEDTTVVLLNYRKDGSTFWNQLFIAALRDGEGNVVNYLGVQCKVSEDYAKAFLKNEENEK
  MAPK pathway activation in response to blue light: blue light-induced activation of MAPK signaling with amplitudes similar to that of the original Opto-mFGFR1
  Blue light intensity at which activation is already achieved: 0.25 mW/cm^2

B2: mFGFR1-SyCP1-PHY: chimeric receptor of mFGFR1 catalytic domain and SyCP1-PHY, SEQ ID NO: 66 (protein)
chain: MGSSKSKPKDPSQRLDMKSGTKKSDFHSQMAVHKLAKSIPLRRQVTVSADSSASMNSGVLLVRPSRLSSSGTPMLAGVSEYELPEDPRWELPRDRLVLGKPLGEGCFGQVVLAEAIGLDKDKPNRVTKVAVKMLKSDATEKDLSDLISEMEMMKMIGKHKNIINLLGACTQDGPLYVIVEYASKGNLREYLQARRPPGLEYCYNPSHNPEEQLSSKDLVSCAYQVARGMEYLASKKCIHRDLAARNVLVTEDNVMKIADFGLARDIHHIDYYKKTTNGRLPVKWMAPEALFDRIYTHQSDVWSFGVLLWEIFTLGGSPYPGVPVEELFKLLKEGHRMDKPSNCTNELYMMMRDCWHAVPSQRPTFKQLVEDLDRIVALTSNQEYLDLSIPLDQYSPSFPDTRSSTCSSGEDSVFSHEPLPEEPCLPRHPTQLANSGLKRRVETGATTVQLSDQSLRQLETLAIHTAHLIQPHGLVVVLQEPDLTISQISANCTGILGRSPEDLLGRTLGEVFDSFQIDPIQSRLTAGQISSLNPSKLWARVMGDDFVIFDGVFHRNSDGLLVCELEPAYTSDNLPFLGFYHMANAALNRLRQQANLRDFYDVIVEEVRRMTGFDRVMLYRFDENNHGDVIAEDKRDDMEPYLGLHYPESDIPQPARRLFIHNPIRVIPDVYGVAVPLTPAVNPSTNRAVDLTESILRSAYHCHLTYLKNMGVGASLTISLIKDGHLWGLIACHHQTPKVIPFELRKACEFFGRVVFSNISAQEDTETFDYRVQLAEHEAVLLDKMTTAADFVEGLTNHPDRLLGLTGSQGAAICFGEKLILVGETPDEKAVQYLLQWLENREVQDVFFTSSLSQIYPDAVNFKSVASGLLAIPIARHNFLLWFRPEVLQTVNWGGDPNHAYEATQEDGKIELHPRQSFDLWKEIVRLQSLPWQSVEIQSALALKKAIVNLILRQAEETGGSGVDYPYDVPDYALD
modifications: redOpto-mFGFR1
  MAPK pathway activation in response to red light: activate the canonical MAPK pathway

B3: NgPA1-LOV: LOV domain of N. gaditana hypothetical protein NGA_0015702, residue 87 to 228 of K8Z861, SEQ ID NO: 12 (protein, listed as Nannochloropsis gaditana)
chain: PDYTLVKALQTAQQNFVITDPTLPDNPIVYASGGFLSLTGYQMDQILGRNCRFLQGPDTDPAAVDKIRRAIEDGTDGSVCLLNYRADGSTFWNQFFIAALRGADGNIVNYVGVQCKVSEEYASEVLKKEATSSTVAEASSKR
  MAPK pathway activation in response to blue light: blue light-induced activation of MAPK signaling with amplitudes similar to that of the original Opto-mFGFR1
  Blue light intensity at which activation is already achieved: 0.25 mW/cm^2

B4: Opto-hRET: fusion of human RET catalytic domain and VfAU1-LOV, SEQ ID NO: 60 (protein)
chain: MGSSKSKPKDPSQRLDVTGHCYHKFAHKPPISSAEMTFRRPAQAFPVSYSSSSARRPSLDSMENQVSVDAFKILEDPKWEFPRKNLVLGKTLGEGEFGKVVKATAFHLKGRAGYTTVAVKMLKENASPSELRDLLSEFNVLKQVNHPHVIKLYGACSQDGPLLLIVEYAKYGSLRGFLRESRKVGPGYLGSGGSRNSSSLDHPDERALTMGDLISFAWQISQGMQYLAEMKLVHRDLAARNILVAEGRKMKISDFGLSRDVYEEDSYVKRSQGRIPVKWMAIESLFDHIYTTQSDVWSFGVLLWEIVTLGGNPYPGIPPERLFNLLKTGHRMERPDNCSEEMYRLMLQCWKQEPDKRPVFADISKDLEKMMVKRRDYLDLAASTPSDSLIYDDGLSEEETPLVDCNNAPLPRALPSTWIENKLYGRISHAFTRFTGGPDYSLVKALQMAQQNFVITDASLPDNPIVYASRGFLTLTGYSLDQILGRNCRFLQGPETDPRAVDKIRNAITKGVDTSVCLLNYRQDGTTFWNLFFVAGLRDSKGNIVNYVGVQSKVSEDYAKLLVNEQNIEYKGVRTSNMLRRKPGGSGVDYPYDVPDYALD
modifications: hRET-VfAU1-LOV
  MAPK pathway activation in response to blue light: robust activation

B5: Opto-mFGFR1-R195E: Opto-mFGFR1 with charge inversion mutation R195E that prevents kinase domain dimer formation (protein)
chain: MGSSKSKPKDPSQRLDMKSGTKKSDFHSQMAVHKLAKSIPLRRQVTVSADSSASMNSGVLLVRPSRLSSSGTPMLAGVSEYELPEDPRWELPRDRLVLGKPLGEGCFGQVVLAEAIGLDKDKPNRVTKVAVKMLKSDATEKDLSDLISEMEMMKMIGKHKNIINLLGACTQDGPLYVIVEYASKGNLREYLQAREPPGLEYCYNPSHNPEEQLSSKDLVSCAYQVARGMEYLASKKCIHRDLAARNVLVTEDNVMKIADFGLARDIHHIDYYKKTTNGRLPVKWMAPEALFDRIYTHQSDVWSFGVLLWEIFTLGGSPYPGVPVEELFKLLKEGHRMDKPSNCTNELYMMMRDCWHAVPSQRPTFKQLVEDLDRIVALTSNQEYLDLSIPLDQYSPSFPDTRSSTCSSGEDSVFSHEPLPEEPCLPRHPTQLANSGLKRRVETGPDYSLVKALQMAQQNFVITDASLPDNPIVYASRGFLTLTGYSLDQILGRNCRFLQGPETDPRAVDKIRNAITKGVDTSVCLLNYRQDGTTFWNLFFVAGLRDSKGNIVNYVGVQSKVSEDYAKLLVNEQNIEYKGVRTSNMLRRKTGGSGVDYPYDVPDYALD
  MAPK pathway activation in response to blue light: no MAPK pathway activation

B6: SyCP1-PHY: PHY domain of Synechocystis PCC6803 CPH1, residue 2 to 514 of Q55168, SEQ ID NO: 64 (protein)
chain: ATTVQLSDQSLRQLETLAIHTAHLIQPHGLVVVLQEPDLTISQISANCTGILGRSPEDLLGRTLGEVFDSFQIDPIQSRLTAGQISSLNPSKLWARVMGDDFVIFDGVFHRNSDGLLVCELEPAYTSDNLPFLGFYHMANAALNRLRQQANLRDFYDVIVEEVRRMTGFDRVMLYRFDENNHGDVIAEDKRDDMEPYLGLHYPESDIPQPARRLFIHNPIRVIPDVYGVAVPLTPAVNPSTNRAVDLTESILRSAYHCHLTYLKNMGVGASLTISLIKDGHLWGLIACHHQTPKVIPFELRKACEFFGRVVFSNISAQEDTETFDYRVQLAEHEAVLLDKMTTAADFVEGLTNHPDRLLGLTGSQGAAICFGEKLILVGETPDEKAVQYLLQWLENREVQDVFFTSSLSQIYPDAVNFKSVASGLLAIPIARHNFLLWFRPEVLQTVNWGGDPNHAYEATQEDGKIELHPRQSFDLWKEIVRLQSLPWQSVEIQSALALKKAIVNLILRQAEE
modifications: Synechocystis PCC6803
Red light
  Red light intensity at which activation is already achieved: 5.8 μW/cm^2
Red light, conversion of 5.8 μW/cm^2
  Red light intensity at which activation is already achieved, converted: 0.0058 mW/cm^2
